Values joined by “and” are separate entries in the source; they are usually repeats but may differ in a detail not shown here. Identical values can stand only once. Like-named read-outs stand apart in the source and are kept apart here.
Legend:
Test in all cases: cross-linking; glutaraldehyde cross-linking (0.01-0.5%, 0.025% chosen as optimal) of recombinant p53 in solution without DNA, 25°C, Tris or HEPES buffer pH 7.5, 100 mM NaCl, then 4-12% MOPS SDS-PAGE (coomassie, silver stain or immunoblot)
[1] = molecular target: murine p53 mutant with the double substitution M340Q/L344R (murine) (UniProt P02340)
[2] = molecular target: recombinant murine p53 (murine) (UniProt P02340)
[3] = molecular target: recombinant murine p53 (murine) (UniProt P02340); remark: listed apart in the source

stoichiometry N [1]	stoichiometry N [2]	stoichiometry N [3]	Substance
2 and 4			murine p53 mutant with the double substitution M340Q/L344R (from UniProt P02340 1-390) (natural protein)
	8	4	recombinant murine p53 (from UniProt P02340 1-390) (natural protein)

Source: publication PMC5291249
